The chains are these.
B1: Azoarcus group I ribozyme (parent)
chain: GUGCCUUGCGCCGGGAAACCACGCAAGGGAUGGUGUCAAAUUCGGCGAAACCUAAGCGCCCGCCCGGGCGUAUGGCAACGCCGAGCCAAGCUUCGGCGCCUGCGCCGAUGAAGGUGUAGAGACUAGACGGCACCCACCUAAGGCAAACGCUAUGGUGAAGGCAUAGUCCAGGGAGUGGCGAAAGUCACACAAACCGG

The variants in this data set derive from B1. The data set is described as follows: reverse-splicing fitness (ratio to wild type); higher = more active; in vitro selection; Mg2+ level not given. An outline of the steps:
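An in vitro group I ribozyme library with randomized positions was T7-transcribed and gel-purified. In triplicate, 10 pmol RNA in EPPS pH 7.5 was reacted with 50 pmoles of a 30-nt RNA substrate for 1 h at 37 °C across several added MgCl2 levels (1–48 mM), then stopped with EDTA. Products were reverse transcribed from a substrate-complementary primer, PCR-amplified and sequenced (HiSeq 4000). Fitness is a variant's read proportion after selection over that before, normalised to wild type.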
In the case of GUGCCUUGCGCCGGGAAACCACGCAAGGGAUGGUGUCAAAUUCGGCGAAACCUAAGCGCCCGCCCGGGCGUAUGGCAACGCAGAGCCAAGCUUCGGCGCCUGCGCCGAUGGAGGUGUAGUGACUAGACGGCACCCACCUAAGGCUAACGCUAUGGUGAAGGCAUAGUCGAGGGAGGGGCGAAAGUCACACAAACCGG [C82A A111G A120U A145U C169G U176G], the reverse-splicing fitness worked out at 0.00177.

Turning to GUGCCUUGCGCCGGGAAACCACGCAAGGGAUGGUGUCAAAUUCGGCGAAACCUAAGCGCCCGCCCGGGCGUAUGGCAACGCAGAGCCAAGCUUCGGCGCCUGCGCCGAUGAAGGUGUAGGGACUAGACGGCACCCACCUAAGGCAAACGUUAUGGUGAAGGCAUAGUCUAGGGAGCGGCGAAAGUCACACAAACCGG [C82A A120G C150U C169U U176C], the reverse-splicing fitness came to 0.0192.

GUGCCUUGCGCCGGGAAACCACGCAAGGGAUGGUGUCAAAUUCGGCGAAACCUAAGCGCCCGCCCGGGCGUAUGGCAACGCUGAGCCAAGCUUCGGCGCCUGCGCCGAUGGAGGUGUAGAGACUAGACGGCACCCACCUAAGGCGAACGGUAUGGUGAAGGCAUAGUCGAGGGAGAGGCGAAAGUCACACAAACCGG [C82U A111G A145G C150G C169G U176A]: the reverse-splicing fitness came to 0.00977.

Turning to GUGCCUUGCGCCGGGAAACCACGCAAGGGAUGGUGUCAAAUUCGGCGAAACCUAAGCGCCCGCCCGGGCGUAUGGCAACGCCGAGCCAAGCUUCGGCGCCUGCGCCGAUGUAGGUGUAGCGACUAGACGGCACCCACCUAAGGCGAACGGUAUGGUGAAGGCAUAGUCUAGGGAGAGGCGAAAGUCACACAAACCGG [A111U A120C A145G C150G C169U U176A], the reverse-splicing fitness was determined as 0.0118.

Take GUGCCUUGCGCCGGGAAACCACGCAAGGGAUGGUGUCAAAUUCGGCGAAACCUAAGCGCCCGCCCGGGCGUAUGGCAACGCUGAGCCAAGCUUCGGCGCCUGCGCCGAUGCAGGUGUAGCGACUAGACGGCACCCACCUAAGGCCAACGUUAUGGUGAAGGCAUAGUCCAGGGAGGGGCGAAAGUCACACAAACCGG [C82U A111C A120C A145C C150U U176G]: the reverse-splicing fitness stood at 0.0052.

Regarding GUGCCUUGCGCCGGGAAACCACGCAAGGGAUGGUGUCAAAUUCGGCGAAACCUAAGCGCCCGCCCGGGCGUAUGGCAACGCCGAGCCAAGCUUCGGCGCCUGCGCCGAUGCAGGUGUAGAGACUAGACGGCACCCACCUAAGGCAAACGCUAUGGUGAAGGCAUAGUCCAGGGAGAGGCGAAAGUCACACAAACCGG [A111C U176A], the reverse-splicing fitness came out at 0.368.

For GUGCCUUGCGCCGGGAAACCACGCAAGGGAUGGUGUCAAAUUCGGCGAAACCUAAGCGCCCGCCCGGGCGUAUGGCAACGCCGAGCCAAGCUUCGGCGCCUGCGCCGAUGAAGGUGUAGUGACUAGACGGCACCCACCUAAGGCCAACGGUAUGGUGAAGGCAUAGUCAAGGGAGGGGCGAAAGUCACACAAACCGG [A120U A145C C150G C169A U176G], the reverse-splicing fitness came to 0.00186.

Take GUGCCUUGCGCCGGGAAACCACGCAAGGGAUGGUGUCAAAUUCGGCGAAACCUAAGCGCCCGCCCGGGCGUAUGGCAACGCGGAGCCAAGCUUCGGCGCCUGCGCCGAUGAAGGUGUAGCGACUAGACGGCACCCACCUAAGGCCAACGGUAUGGUGAAGGCAUAGUCAAGGGAGCGGCGAAAGUCACACAAACCGG [C82G A120C A145C C150G C169A U176C]: the reverse-splicing fitness is 0.00752.

For the variant GUGCCUUGCGCCGGGAAACCACGCAAGGGAUGGUGUCAAAUUCGGCGAAACCUAAGCGCCCGCCCGGGCGUAUGGCAACGCAGAGCCAAGCUUCGGCGCCUGCGCCGAUGGAGGUGUAGCGACUAGACGGCACCCACCUAAGGCAAACGCUAUGGUGAAGGCAUAGUCGAGGGAGGGGCGAAAGUCACACAAACCGG [C82A A111G A120C C169G U176G], the reverse-splicing fitness was determined as 0.00548.

For GUGCCUUGCGCCGGGAAACCACGCAAGGGAUGGUGUCAAAUUCGGCGAAACCUAAGCGCCCGCCCGGGCGUAUGGCAACGCAGAGCCAAGCUUCGGCGCCUGCGCCGAUGGAGGUGUAGUGACUAGACGGCACCCACCUAAGGCUAACGCUAUGGUGAAGGCAUAGUCUAGGGAGGGGCGAAAGUCACACAAACCGG [C82A A111G A120U A145U C169U U176G], the reverse-splicing fitness worked out at 0.00199.

Consider GUGCCUUGCGCCGGGAAACCACGCAAGGGAUGGUGUCAAAUUCGGCGAAACCUAAGCGCCCGCCCGGGCGUAUGGCAACGCCGAGCCAAGCUUCGGCGCCUGCGCCGAUGGAGGUGUAGGGACUAGACGGCACCCACCUAAGGCAAACGAUAUGGUGAAGGCAUAGUCAAGGGAGGGGCGAAAGUCACACAAACCGG [A111G A120G C150A C169A U176G], for which the reverse-splicing fitness came out at 0.00486.

On to GUGCCUUGCGCCGGGAAACCACGCAAGGGAUGGUGUCAAAUUCGGCGAAACCUAAGCGCCCGCCCGGGCGUAUGGCAACGCAGAGCCAAGCUUCGGCGCCUGCGCCGAUGCAGGUGUAGCGACUAGACGGCACCCACCUAAGGCAAACGUUAUGGUGAAGGCAUAGUCAAGGGAGAGGCGAAAGUCACACAAACCGG [C82A A111C A120C C150U C169A U176A], for which the reverse-splicing fitness was 0.0146.

For GUGCCUUGCGCCGGGAAACCACGCAAGGGAUGGUGUCAAAUUCGGCGAAACCUAAGCGCCCGCCCGGGCGUAUGGCAACGCCGAGCCAAGCUUCGGCGCCUGCGCCGAUGGAGGUGUAGGGACUAGACGGCACCCACCUAAGGCCAACGAUAUGGUGAAGGCAUAGUCGAGGGAGAGGCGAAAGUCACACAAACCGG [A111G A120G A145C C150A C169G U176A], the reverse-splicing fitness was determined as 0.0264.

Regarding GUGCCUUGCGCCGGGAAACCACGCAAGGGAUGGUGUCAAAUUCGGCGAAACCUAAGCGCCCGCCCGGGCGUAUGGCAACGCAGAGCCAAGCUUCGGCGCCUGCGCCGAUGAAGGUGUAGGGACUAGACGGCACCCACCUAAGGCAAACGGUAUGGUGAAGGCAUAGUCGAGGGAGUGGCGAAAGUCACACAAACCGG [C82A A120G C150G C169G], the reverse-splicing fitness stood at 0.00786.

As for GUGCCUUGCGCCGGGAAACCACGCAAGGGAUGGUGUCAAAUUCGGCGAAACCUAAGCGCCCGCCCGGGCGUAUGGCAACGCAGAGCCAAGCUUCGGCGCCUGCGCCGAUGAAGGUGUAGCGACUAGACGGCACCCACCUAAGGCGAACGCUAUGGUGAAGGCAUAGUCUAGGGAGGGGCGAAAGUCACACAAACCGG [C82A A120C A145G C169U U176G], the reverse-splicing fitness is 0.00469.

Values taken from the RNAGym collection of RNA variant scans (doi:10.1093/molbev/msab373).
